Test [1] concerns the target AKAP18β 30-mer peptide, Ala63 to aspartate (human). As to the kind of experiment: peptide or protein array.
Test [2] concerns the target AKAP18β 30-mer peptide, Ala67 to aspartate (human). The test is described as follows: peptide or protein array.
Test [3] concerns the target AKAP18β 30-mer peptide, Val60 to aspartate (human). The test is described as follows: peptide or protein array.
The target of test [4] is AKAP18β 30-mer peptide, Val64 to aspartate (human). The test is described as follows: peptide or protein array.
The target of the next test is PKA RIIα (Homo sapiens) (UniProt P13861). As to the kind of experiment: SPR. The following applies: cited from earlier work.
Sequence of PKA RIIα (Homo sapiens) (P13861 2-404): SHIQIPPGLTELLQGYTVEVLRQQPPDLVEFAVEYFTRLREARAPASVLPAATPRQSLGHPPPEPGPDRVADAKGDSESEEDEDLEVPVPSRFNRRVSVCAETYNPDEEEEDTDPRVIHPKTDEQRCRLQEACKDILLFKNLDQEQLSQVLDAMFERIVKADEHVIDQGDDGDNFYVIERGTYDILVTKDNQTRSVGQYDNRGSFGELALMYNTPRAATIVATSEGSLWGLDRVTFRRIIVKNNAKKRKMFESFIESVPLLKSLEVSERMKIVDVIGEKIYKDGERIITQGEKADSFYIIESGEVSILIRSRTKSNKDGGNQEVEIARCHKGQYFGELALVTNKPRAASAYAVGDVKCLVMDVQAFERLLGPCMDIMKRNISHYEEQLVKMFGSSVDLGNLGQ

In PMC4964276 one finds reduction of binding (% against the wild-type peptide) and Kd data, which are given here for 2 substances.

Sequence of RIIα subunits, recombinant, radioactively labelled (32P) (P13861 whole entry): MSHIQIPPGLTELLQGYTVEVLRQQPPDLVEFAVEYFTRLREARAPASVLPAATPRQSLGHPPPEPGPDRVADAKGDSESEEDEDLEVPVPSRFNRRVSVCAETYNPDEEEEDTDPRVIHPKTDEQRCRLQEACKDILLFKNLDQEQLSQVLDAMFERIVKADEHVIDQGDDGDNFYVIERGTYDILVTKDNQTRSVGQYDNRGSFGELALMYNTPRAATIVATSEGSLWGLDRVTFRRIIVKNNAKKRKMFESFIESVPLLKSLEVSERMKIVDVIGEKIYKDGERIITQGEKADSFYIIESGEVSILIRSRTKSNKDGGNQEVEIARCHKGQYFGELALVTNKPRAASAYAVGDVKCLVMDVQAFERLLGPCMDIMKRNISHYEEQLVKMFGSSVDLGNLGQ
Sequence of AKAP18δ PKA-binding domain peptide PKA-binding domain (25 aa) (Q9P0M2 295-319, stated change not applied): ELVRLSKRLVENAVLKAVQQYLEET

Regarding “RIIα subunits, recombinant, radioactively labelled (32P) (from UniProt P13861 1-404) (natural protein)”, the reduction of binding (% against the wild-type peptide) in test [1], in test [2], in test [3] and in test [4] was above 60% each time.

In the case of “AKAP18δ PKA-binding domain peptide PKA-binding domain (25 aa) (from UniProt Q9P0M2)”, the Kd (in general, the equilibrium constant for the complex coming apart) in the test with PKA RIIα (Homo sapiens) was 0.4 nM.
